The record followed here is a protein production outcome set (Wang et al. 2014).

This data set is described as follows: label from the status in PepcDB records.
Turning to “MLKALKKIFGKADGTQPQSGSSPVPQGPAGATAKGTAPTGEKPTEKRPRKPRPPRADNESGAPRAAEKAEKAEKPAKPAGKEGRDAKPRTDKPRRERKPKPVDNWKLEDFVVEPQEGKTRFHDFNLAPSLMHAIHDLGFPYCTPIQAQVLGFTLRGQDAIGRAQTGTGKTAAFLISIITQLLQTPPPKERYMGEPRALIIAPTRELVVQIAKDAAALTKYTGLNVMTFVGGMDFDKQLKQLEARFCDILVATPGRLLDFNQRGEVHLDMVEVMVLDEADRMLDMGFIPQVRQIIRQTPHKGERQTLLFSATFTDDVMNLAKQWTVDPAIVEIEPENVASDTVEQHVYAVAGSDKYKLLYNLVAQNNWERVMVFANRKDEVRRIEERLTKDGISAAQMSGDVPQHKRIRTLEGFREGKIRVLVATDVAGRGIHIDGISHVINFTLPEDPDDYVHRIGRTGRAGASGTSISFAGEDDAFALPPIEELLGRKITCEMPPAELLKPVPRKH”, the protein production result was “failed”.

With “MSLGELNVATVTRRPEILLVDSQEVILQRLQQLLSPLPYTLHFARDATQALQLLASREVDLVISAAHLPQMDGPTLLARIHQQYPSTTRILLTGDPDLKLIAKAINEGEIYRYLSKPWDDQELLLALRQALEHQHSERERLRLQDEGHHHHHH”, the protein production entry is “not failed”.

Take “MLDDLDLFVAIVDAGSLSAAAKRMAMPAATLTRRLQALEAELGCKLLNRSARRLVPTNEGWQYYEQCKPLLAALRQAADSLDATLNRVEGVVRAMAPVSMANSLLLPVWQRLLQRHPAVRLELVLSNGTEDVWAMGGDLAIRVGPQPDSQLNQRKLGQVSAVLAAAPSYLEARGRPQAFEQLAGHDLLLTTPLQNWKLHRVDGDEERSLPDGARLLVNDMLLGVRMAEAGCGVVLCPLSQCHRELADGRLERILQDWWIPPRPVYAVWPQRRAMPARVRALLDILLEFAAEEPLLRS”: the protein production entry was “failed”.

As to “MDRTLTHQPQEYAVSVSVGEVKLKGNLVIPNGATGIVLFAHGSGSSRYSPRNRYVAEVLQQAGLATLLIDLLTQEEEEIDLRTRHLRFDIGLLASRLVGATDWLTHNPDTQHLKVGYFGASTGGGAALVAAAERPETVQAVVSRGGRPDLAPSALPHVKAPTLLIVGGYDLPVIAMNEDALEQLQTSKRLVIIPRASHLFEEPGALTAVAQLASEWFMHYLR”, the protein production entry is recorded as “not failed”.

For the sequence “VQVGNCLQVMWLADRHSDPELYTAAKHCAKTHLAQLQNTEEFLHLPHRLLTDIISDGVPCSQNPTEAIEAWINFNKEEREAFAESLRTSLKEIGENVH”, the protein production result is reported as “not failed”.

In the case of “MTSGIDLQNSFLQSLQGFGLPPGLAKLFWIPLPSILMIIGATVGVLVVVWLERKISAAAQQRIGPEYAGPLGVLQPVADGIKLVFKEDVVPAKADPWLFTLGPVLVVLPVFLSYLIVPFGQNLVITDINVGIFLWIALSSIAPIGLLMSGYASNNKYSLLGGLRAAAQSISYEIPLSLAVLAIVMMSNSLSTIDIVDQQSGYGILGWNIWRQPVGFLIFWIAALAECERLPFDLPEAEEELVAGYQTEYAGMKFALFYLGSYVNLVLSALVFSVLYLGGWDFPIPLENVANWLGVAPTTSWLQVLMAALGITMTVLKSYFLIFIAILLRWTVPRVRIDQLLNLGWKFLLPVALANLLITAALKLTFPMAFGG”, the protein production result was “failed”.

Consider “MAKVKVLFVRNLANTVTEEILEKAFSQFGKLERVKKLKDYAFIHFDERDGAVKAMEEMNGKDLEGENIEIVFAKPPDQKRKERKAQRQAA”, for which the protein production result is on record as “not failed”.

With “MQRLNLGCGQYPKAGFLNVDVDPLAKADVFHDLSSFPYPFEDARFDLVEMDHVLEHLPSPRDAMREIWRILKPGGTLRLRVPHFSRGFSHYDHKCGFDVTFPLYFDPTFPGGYTGIPFEHVQTRLVWFAQPWLKRQVLGNFAFNVGKMLGMVFDALGNIAPLATSRLFCFWVGGYEEITFELRRPTNTLEHHHHHH”, the protein production entry is recorded as “not failed”.

Turning to “MTARARSALLDAEHIVGYTTYVELLPDEITEGADDIYNTPMCGEVSRTEEAIDRALAGNDVAIIGSGDPNVYALAGLALEIIESKGATATMLDFDVVPGVP”, the protein production entry was “failed”.

As for “MNDLKRLPYEPVKGLLPRPAVGTSERVITLPEPDRTSGMPLMGTLWLRKSTREFDQQPLPLKQLSELLWAAAGVNRSLGGGRTAPSPYGETVIDVYVALPAGLYRYDPVHHCLELKRAADLRSMTGYQDFVGMAPLDLVFVANHGRMQEMPPKLRETFSAAAAGAMAENAYLYCASAGLGAVVRGWLNRRQLAEHMSLNEDEEPILSQTIGRAASHVTTTQA”, the protein production result is reported as “not failed”.

“MAASDSRNNRADEPGFVVQPKGEHRVIIVWLHDKDERSSDSLQFVEQLNLKNVKWICPSLVFPDSFIKGVGGLGMGAAVALHFATSCALNHYTINPRVVVGISGWLSNSGSLKRSIESASHGAPARAASQSIFITHGICKSNRLLFQCDSVPHPCDCGEEAVLSLREAGFRDVKFTPFARFGPTAHENNRNVMVKSWLEEKLQLDVTIP”: the protein production result is recorded as “failed”.

With “MKSTLIDNFTLLLWASLMASSFVVSEQLLPYANPIASTALRFILATILMMPFIGRASIKQLNYKILLRYSVISLFLVLFFIGLFEALKTTNAMRTSVIYTLLPLISVVLTYIGLKFVTPNKQIAGFLIGTLGAIWVLVAFTQGKLVLIEWRLGDSIFLVACCCLALHVILIKKWATDVPPMLGAFYIMLLGSLILLPFLIFFGDLNNIAWHEDEFWKVLLYLTLFTTIATFFLQQHLLKKVGPNRLLGFTYLIPSIVLIPQGLANMSQLYSVVPGIMLTFLALYLISPKHQ”, the protein production result is given as “failed”.

Regarding “MVKSKVKKVEKGKEGEEKRSTYVLLKKVLIPILVFGFAIYAFYLRHLTAGKYFPDPDTFYHFEIYKLVLKEGLPRYYPMSDAPFGSLIGEPLGLYLLPAAFYKVVSLFGYNELQAFLLWPPFVGFLGVIAVYLLGRKVLNEWTGLWGAVVLTVSTANFSRTFSGNARGDGPFMALFIFASVAMLYYLKESNKTRKIIYGTLFVLLTVISLGAWNGSPFGLMVLLGFASLQTIILFIFGKLEELKKFVKEFYPAYLAILAFGYALTFPGIVKIGGFIRFAFEVFLGLIFLLVIMLYGGRYLNYSDKKHRFLVVTIIVLLGFGGAYAYVGPKLFRLMGGAYQSTQVYETVQELAKTTIGDVKAYYGVESGNGLIFFLSIPGLLILLTKYLYDLFKKAKSDNETLFALVFYTMSLYLLYLAVRFLFLASYAVALFFGIFIGFSMDVIEKMKENIGIKAALGIVLSLMILVIPFVHAPVLARSARALKNTEIEVTGWEQALKWLRSNTSKYATATSWWDYGYWIESSLLGNRRASADGGHARDRDHILALFLARDGNISEVDFESWELNYFIIYLNDWAKFNAISYLGGAITRKEYNGDENGRGRVTTILLTQAAGNVYVNPYARIVIKVIQQNKTRRIAVNIGQLECSPILSVAFPGNIKIKGSGRCSDGSPFPYVVYLTPSLGVLAYYKVATSNFVKLAFGIPTSSYSEFAEKLFSNFIPVYQYGSVIVYEFRPFAIYKIEDFINGTWREVGKLSPGKHTLRLYISAFGRDIKNATLYVYALNGTKIIKRIKVGEIKYMNHLEEYPIIVNVTLPTAQKYRFILAQKGPVGVLTGPVRVNGKITNPAYIMREGESGRLELKVGVDKEYTADLYLRATFIYLVRKGGKSNEDYDASFEPHMDTFFITKLKEGIKLRPGENEIVVNAEMPKNAISSYKEKLEKEHGDKLIIRGIRVEPVFIVEKEYTMIEVSASAPHHSSE”, the protein production entry is “failed”.
